The source of these data is patent US10233219 (TUFTS MEDICAL CENTER, dated 2019).

Non-standard residues stand in square brackets, D forms with d. No end group written: not given here. *: point of attachment. PEG8 = NCCOCCOCCOCCOCCOCCOCCOCCOCCC(=O)O; Palmitoyl = CCCCCCCCCCCCCCCC(=O)*; Tic = O=C(O)[C@@H]1Cc2ccccc2CN1

Common to all, as to assay: cell-based or functional assay
Test [1] addresses neurokinin 1 receptor (human, UniProt P25103 1-407).
The target in test [2] is T1, mouse CMKLR1 (chemerin receptor) (mouse, UniProt P97468 1-371).
T1 sequence (looked up): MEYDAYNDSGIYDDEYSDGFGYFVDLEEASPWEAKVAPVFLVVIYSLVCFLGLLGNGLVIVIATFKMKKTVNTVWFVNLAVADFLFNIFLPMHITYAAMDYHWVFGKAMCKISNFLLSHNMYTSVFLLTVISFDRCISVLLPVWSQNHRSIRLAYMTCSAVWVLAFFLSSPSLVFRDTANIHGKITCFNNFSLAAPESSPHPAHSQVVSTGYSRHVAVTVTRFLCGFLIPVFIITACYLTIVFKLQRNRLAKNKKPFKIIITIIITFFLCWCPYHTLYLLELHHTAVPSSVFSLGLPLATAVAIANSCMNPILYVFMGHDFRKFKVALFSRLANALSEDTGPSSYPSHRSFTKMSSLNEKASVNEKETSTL

For test [3], the target named is T2, human CMKLR1 (chemerin receptor) (human, UniProt Q99788 1-373).
T2 sequence (looked up): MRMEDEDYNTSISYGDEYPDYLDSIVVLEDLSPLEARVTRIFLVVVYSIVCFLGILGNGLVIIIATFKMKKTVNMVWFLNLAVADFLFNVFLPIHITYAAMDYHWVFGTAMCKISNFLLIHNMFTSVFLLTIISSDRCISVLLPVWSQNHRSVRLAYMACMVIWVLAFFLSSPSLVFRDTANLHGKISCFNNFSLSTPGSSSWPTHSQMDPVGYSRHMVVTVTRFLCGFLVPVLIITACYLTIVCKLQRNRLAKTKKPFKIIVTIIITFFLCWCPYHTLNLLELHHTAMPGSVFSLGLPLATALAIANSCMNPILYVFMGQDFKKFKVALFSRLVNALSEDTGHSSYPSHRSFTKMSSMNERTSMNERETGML

Chain of neurokinin 1 receptor (P25103 whole entry): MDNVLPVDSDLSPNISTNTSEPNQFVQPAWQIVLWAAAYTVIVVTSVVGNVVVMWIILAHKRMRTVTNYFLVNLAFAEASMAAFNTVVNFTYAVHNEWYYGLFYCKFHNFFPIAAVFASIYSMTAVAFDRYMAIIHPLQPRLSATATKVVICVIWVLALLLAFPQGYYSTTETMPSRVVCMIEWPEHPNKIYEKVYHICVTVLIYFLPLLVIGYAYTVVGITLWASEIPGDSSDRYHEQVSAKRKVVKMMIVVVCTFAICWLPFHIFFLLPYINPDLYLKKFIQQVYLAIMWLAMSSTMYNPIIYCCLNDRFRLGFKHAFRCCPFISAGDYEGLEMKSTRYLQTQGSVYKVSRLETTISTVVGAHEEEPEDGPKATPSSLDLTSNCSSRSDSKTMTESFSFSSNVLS

B1: l-SubP-COOH (lipidated Substance P with a C-terminal free acid) (peptide)
peptide: {Palmitoyl-PEG8}-KGGRPKPQQFFGLM-OH
SMILES: CCCCCCCCCCCCCCCC(=O)NCCOCCOCCOCCOCCOCCOCCOCCOCCC(=O)N[C@@H](CCCCN)C(=O)NCC(=O)NCC(=O)N[C@@H](CCCNC(=N)N)C(=O)N1CCC[C@H]1C(=O)N[C@@H](CCCCN)C(=O)N1CCC[C@H]1C(=O)N[C@@H](CCC(N)=O)C(=O)N[C@@H](CCC(N)=O)C(=O)N[C@@H](Cc1ccccc1)C(=O)N[C@@H](Cc1ccccc1)C(=O)NCC(=O)N[C@@H](CC(C)C)C(=O)N[C@@H](CCSC)C(=O)O
In the case of B1, the EC50 in test [1] is 6.1 nM.

B2: s-Chem 21-157 (soluble recombinant human chemerin corresponding to amino acids 21-157) (ligand)
chain: ELTEAQRRGLQVALEEFHKHPPVQWAFQETSVESAVDTPFPAGIFVRLEFKLQQTSCRKRDWKKPECKVRPNGRKRKCLACIKLGSEDKVLGRLVHCPIETQVLREAEEHQETQCLRVQRAGEDPHSFYFPGQFAFS
As to B2, in test [2], a half-maximal effect (EC50) was put at 13.7 nM and the pEC50 is 8.01.

B3: l-Stable Chem (lipidated stable chemerin peptide) (peptide)
peptide: {Palmitoyl-PEG8}-GG[dY]FLPSQF[dA][Tic]S
modifications: also: D-Ser, which S not given here
In the case of B3, in test [3], the “EC50” value stood at 2.6 nM; the “EC50 (nM), + wash” value worked out at 27.1 nM; the pEC50 came out at 8.59; the “pEC50, + wash” value worked out at 7.6. Besides, in test [2], a half-maximal response (EC50) required 2 nM; the “EC50 (nM), + wash” value came out at 10.4 nM; the pEC50 is 8.7; the “pEC50, + wash” value turned out to be 7.96.

B4: s-Stable Chem (soluble stable chemerin peptide) (peptide)
peptide: H-[dY]FLPSQF[dA][Tic]S
modifications: also: D-Ser, which S not given here
For the molecule B4, the “EC50” value in test [3] came to 60.6 nM; in test [2] it was 11.9 nM. The results for the pEC50 in test [3] and in test [2] were 7.21 and 7.92, respectively.

As a reminder, the EC50 is the concentration at which the effect is half-maximal. Low values mean higher potency in that assay, high ones lower potency in that assay. A word on the pEC50: it is the EC50 on a negative log10 scale, so that one unit is a factor of ten.
